Read-outs that look alike come from different tables or passages of the source.

Test [1] addresses T1, recombinant human IL-6R (human, UniProt P08887 20-365, limits assumed).
T1 construct: Recombinant protein used in ELISA and as SPR analyte; also called hIL-6R
T1 sequence (looked up): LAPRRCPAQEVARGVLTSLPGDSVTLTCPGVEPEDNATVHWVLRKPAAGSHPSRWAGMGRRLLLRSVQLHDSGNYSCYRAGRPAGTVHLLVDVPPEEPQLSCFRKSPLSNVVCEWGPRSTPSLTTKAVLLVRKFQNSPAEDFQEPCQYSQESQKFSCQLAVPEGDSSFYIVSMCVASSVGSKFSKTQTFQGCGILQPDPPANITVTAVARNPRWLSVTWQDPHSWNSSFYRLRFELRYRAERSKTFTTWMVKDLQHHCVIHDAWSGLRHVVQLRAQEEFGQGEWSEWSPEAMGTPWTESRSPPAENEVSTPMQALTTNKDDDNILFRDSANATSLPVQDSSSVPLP
As to the kind of experiment: ELISA on plate-coated recombinant human IL-6R; anti-human IgG1-Fc-HRP, OD450. The method, then:
(§1) After non-specific blocking using 1% BSA at 25° C. for 1 hour, a series of dilutions of test antibodies (“Abs”) were added into the coated wells and incubated at 25° C. for 1 hour. The bound Abs were detected using a secondary Ab (goat anti-human IgG1-Fc) conjugated with HRP followed by OD₄₅₀ reading.
(§2) The same ELISA procedure was performed with recombinant human IL-6R. […] Vobarilizumab is a single domain antibody against IL-6R. B781402 and B781405 are bispecific fusion antibodies that inhibit VEGF-A, B, PIGF and IL-6R.
(In general: An ELISA detects its analyte on a solid surface through an enzyme-linked reagent.)

Test [2] has as its target T1, recombinant human IL-6R. Described as above. The method, then: as §1, §2
The source holds these as a separate data set.

In test [3] the target is T2, human IL-6R overexpressed on engineered CHO-S cells (human, UniProt P08887 20-468).
T2 construct: whole, on cells; also called IL-6R-expressing CHO-S cells
T2 sequence (looked up): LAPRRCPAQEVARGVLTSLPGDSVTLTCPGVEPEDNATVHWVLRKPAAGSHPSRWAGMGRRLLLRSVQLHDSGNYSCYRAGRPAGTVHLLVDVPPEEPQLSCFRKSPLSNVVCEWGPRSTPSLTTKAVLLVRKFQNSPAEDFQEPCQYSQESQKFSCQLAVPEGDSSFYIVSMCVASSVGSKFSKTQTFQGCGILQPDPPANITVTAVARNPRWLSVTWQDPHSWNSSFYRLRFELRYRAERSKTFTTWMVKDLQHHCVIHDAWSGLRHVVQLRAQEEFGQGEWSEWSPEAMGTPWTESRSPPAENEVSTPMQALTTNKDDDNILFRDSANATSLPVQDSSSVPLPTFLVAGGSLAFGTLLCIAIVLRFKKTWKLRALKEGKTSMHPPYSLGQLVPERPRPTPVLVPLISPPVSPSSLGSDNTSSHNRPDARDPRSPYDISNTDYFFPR
The experiment in a line: FACS competition: antibody with biotinylated human IL-6 and CHO-S cells overexpressing human IL-6R; blocked: IL-6 binding to IL-6R. From the text: (§3) Vobarilizumab is a single domain antibody (also termed nanobody) against human IL-6R.

In test [4] the target is T1, recombinant human IL-6R. As to the kind of experiment: SPR Biacore, 25 C; test antibody captured by anti-human IgG (Fc) on CM5 chip, target protein as analyte; 1:1 model. The method, then: (§4) SPR Biacore assay was performed at 25° C. with HBS-EP+ as a running buffer. The assay was performed by immobilization of the anti-human IgG (Fc) antibody onto the CM5 sensor chip surface and determined the level of ligand immobilization. […] Test antibodies were injected over the surface of Series S Sensor Chip CM5 as Capture. The analytes (target proteins) were diluted with running buffer into different concentrations and injected over the sensor surface as the association phase for affinity and kinetics measurements. The 1:1 binding model was used to measure the binding affinity and/or kinetics.

Test [5] deals with T2, human IL-6R overexpressed on engineered …. As to the kind of experiment: FACS competition: antibody with biotinylated human IL-6 and CHO-S cells overexpressing human IL-6R; blocked: IL-6 binding to IL-6R.
Source text: as §3
This is another data set of the same source.

For test [6], the target named is T1, recombinant human IL-6R. As to the kind of experiment: SPR Biacore, 25 C; test antibody captured by anti-human IgG (Fc) on CM5 chip, target protein as analyte; 1:1 model. The protocol: as §4
This is another data set of the same source. On the technique in general: SPR reads the build-up and loss of mass on a sensor chip optically.

For test [7], the target named is T3, human Ang-1-Fc (human, UniProt Q15389 20-498, limits assumed).
T3 construct: not shown: Fc part
T3 sequence (looked up): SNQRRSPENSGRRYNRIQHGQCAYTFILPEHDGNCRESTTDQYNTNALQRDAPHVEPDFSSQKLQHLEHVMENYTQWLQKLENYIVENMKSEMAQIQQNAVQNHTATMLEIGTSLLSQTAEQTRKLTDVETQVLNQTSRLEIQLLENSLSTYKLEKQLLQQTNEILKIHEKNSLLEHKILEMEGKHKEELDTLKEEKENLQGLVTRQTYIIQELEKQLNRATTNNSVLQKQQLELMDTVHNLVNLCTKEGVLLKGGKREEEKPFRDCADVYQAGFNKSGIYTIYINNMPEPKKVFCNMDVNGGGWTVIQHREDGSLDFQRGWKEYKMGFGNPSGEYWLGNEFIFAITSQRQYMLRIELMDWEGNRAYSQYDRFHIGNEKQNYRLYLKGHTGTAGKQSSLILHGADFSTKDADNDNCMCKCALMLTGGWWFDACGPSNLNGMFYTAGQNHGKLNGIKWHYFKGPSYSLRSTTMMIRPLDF
The experiment in a line: FACS competition: soluble human Tie-2 ECD (positive control) pre-incubated with 2 µg/ml human Ang-1-Fc, then HEK-293 cells overexpressing human Tie-2; blocked: Ang-1-Fc binding to cell-bound Tie-2.

In test [8] the target is T3, human Ang-1-Fc. As to the kind of experiment: FACS competition: soluble recombinant hTie-2 (positive control) pre-incubated with 2 µg/ml human Ang-1-Fc, then HEK-293 cells overexpressing human Tie-2; blocked: Ang-1-Fc binding to cell-bound Tie-2.

B1: Vobarilizumab (VHH)
VHH 1: EVQLVESGGGLVQPGGSLRLSCAASGSVFKINVMAWYRQAPGKGRELVAGIISGGSTSYADSVKGRFTISRDNAKNTLYLQMNSLRPEDTAVYYCAFITTESDYDLGRRYWGQGTLVTVSS
VHH 2: QIILTQSPAIMSASLGEEITLTCSATSSVTYVHWYQQKSGTSPKLLIYGTSNLASGVPSRFSGSGSGTFYSLTVSSVEAEDAADYYCHQWNSYPHTFGGGTKLEIK
As to B1, the figures for the half-maximal effective concentration (EC50) in test [1] and in test [2] were 1.36 nM and 1.39 nM, respectively.

B2: Tocilizumab (antibody, V domains shown)
VH: QVQLQESGPGLVRPSQTLSLTCTVSGYSITSDHAWSWVRQPPGRGLEWIGYISYSGITTYNPSLKSRVTMLRDTSKNQFSLRLSSVTAADTAVYYCARSLARTTAMDYWGQGSLVTVSS
VL: DIQMTQSPSSLSASVGDRVTITCRASQDISSYLNWYQQKPGKAPKLLIYYTSRLHSGVPSRFSGSGSGTDFTFTISSLQPEDIATYYCQQGNTLPYTFGQGTKVEIKR
notes: mAb against human IL-6R used as comparator
Take B2: the half-inhibitory concentration (IC50) (in general, the point on the concentration scale where inhibition reaches its midpoint) was determined as 0.756 nM in test [3] and 1.82 nM in test [5]. In addition, the Kd (commonly the constant that tells how readily two partners part at equilibrium) is 1.4 nM in test [4] and 1.1 nM in test [6]. The dissociation rate constant (koff) – broadly, the first-order rate constant of dissociation – came to 0.000521 s⁻¹ in test [4] and 0.00046 s⁻¹ in test [6]. Moreover, the kon – broadly, a measure of how fast the partners come together – in test [4] is 373000 M⁻¹ s⁻¹; in test [6], 420000 M⁻¹ s⁻¹. In addition, the figures for the EC50 in test [1] and in test [2] were 0.028 nM and 0.05 nM, respectively.

B3: hTie2 (receptor)
chain: AMDLILINSLPLVSDAETSLTCIASGWRPHEPITIGRDFEALMNQHQDPLEVTQDVTREWAKKVVWKREKASKINGAYFCEGRVRGEAIRIRTMKMRQQASFLPATLTMTVDKGDNVNISFKKVLIKEEDAVIYKNGSFIHSVPRHEVPDILEVHLPHAQPQDAGVYSARYIGGNLFTSAFTRLIVRRCEAQKWGPECNHLCTACMNNGVCHEDTGECICPPGFMGRTCEKACELHTFGRTCKERCSGQEGCKSYVFCLPDPYGCSCATGWKGLQCNEACHPGFYGPDCKLRCSCNNGEMCDRFQGCLCSPGWQGLQCEREGIQRMTPKIVDLPDHIEVNSGKFNPICKASGWPLPTNEEMTLVKPDGTVLHPKDFNHTDHFSVAIFTIHRILPPDSGVWVCSVNTVAGMVEKPFNISVKVLPKPLNAPNVIDTGHNFAVINISSEPYFGDGPIKSKKLLYKPVNHYEAWQHIQVTNEIVTLNYLEPRTEYELCVQLVRRGEGGEGHPGPVRRFTTASIGLPPPRGLNLLPKSQTTLNLTWQPIFPSSEDDFYVEVERRSVQKSDQQNIKVPGNLTSVLLNNLHPREQYVVRARVNTKAQGEWSEDLTAWTLSDILPPQPENIKISNITHSSAVISWTILDGYSISSITIRYKVQGKNEDQHVDVKIKNATITQYQLKGLEPETAYQVDIFAENNIGSSNPAFSHELVTLPESQAPADLGGGKMLL
notes: also called human Tie-2 ECD; recombinant hTie-2
For B3, the concentration for half-maximal inhibition (IC50) amounted to 42.9 nM in test [7] and 53 nM in test [8].

These data come from patent US20260265359A1 (Hoffmann-La Roche, published 2026).
